In the assay the target is T1, His-DUB3 (deubiquitinating enzyme 3) (UniProt Q6R6M4 1-530).
T1 construct: deubiquitinating enzyme 3 (DUB3); also called purified recombinant His-DUB3; source: purified recombinant (cloned into PET28A)
T1 sequence (looked up): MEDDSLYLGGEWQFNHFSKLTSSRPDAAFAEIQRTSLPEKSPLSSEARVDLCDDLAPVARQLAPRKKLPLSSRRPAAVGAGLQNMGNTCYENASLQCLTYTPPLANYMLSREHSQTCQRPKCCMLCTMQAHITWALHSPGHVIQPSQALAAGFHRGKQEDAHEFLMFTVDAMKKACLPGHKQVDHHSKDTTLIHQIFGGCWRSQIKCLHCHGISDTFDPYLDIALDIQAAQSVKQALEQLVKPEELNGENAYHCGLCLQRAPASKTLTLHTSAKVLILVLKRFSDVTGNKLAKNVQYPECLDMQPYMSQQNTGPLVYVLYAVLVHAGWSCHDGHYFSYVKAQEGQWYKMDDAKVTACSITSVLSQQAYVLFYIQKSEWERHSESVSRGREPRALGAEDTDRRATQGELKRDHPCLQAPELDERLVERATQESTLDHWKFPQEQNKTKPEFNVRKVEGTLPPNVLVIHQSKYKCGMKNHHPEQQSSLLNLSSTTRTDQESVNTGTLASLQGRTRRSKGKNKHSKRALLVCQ
Briefly: pull-down; purified recombinant GST or GST fusion protein incubated in vitro (cell-free) with purified recombinant His-tagged protein; blot and Coomassie blue staining. The conditions noted are these: both partners purified.

B1: GST-CDK4 (cyclin-dependent kinase 4) (enzyme, UniProt P11802 1-303, looked up)
chain: MATSRYEPVAEIGVGAYGTVYKARDPHSGHFVALKSVRVPNGGGGGGGLPISTVREVALLRRLEAFEHPNVVRLMDVCATSRTDREIKVTLVFEHVDQDLRTYLDKAPPPGLPAETIKDLMRQFLRGLDFLHANCIVHRDLKPENILVTSGGTVKLADFGLARIYSYQMALTPVVVTLWYRAPEVLLQSTYATPVDMWSVGCIFAEMFRRKPLFCGNSEADQLGKIFDLIGLPPEDDWPRDVSLPRGAFPPRGPRPVQSVVPEMEESGAQLLLEMLTFNPHKRISAFRALQHSYLHKDEGNPE
notes: cyclin-dependent kinase 4 (CDK4); CDK4 and CDK6 were cloned as separate genes, so they are written as two molecules; No cyclin is mentioned; also called GST-CDK4/6; source: purified recombinant (cloned into pGEX4T-1)
Take B1: the binding result was “binds”.

(Values after paper PMC11832431 (MedComm, 2025).)
